Experimental data published in paper PMC12415261 (Proceedings of the National Academy of Sciences of the …, 2025).

B1: ALK3-Fc (homodimeric Fc-fusion of ALK3-ECD) [human] / Recombinant human BMP6, mammalian expressed (glycosylated) [modified: N-linked glycosylation at Asn454 (prehelical loop); N-linked glycosylation at Asn454 (prehelical loop)] [human] (parent complex)
chain 1: QNLDSMLHGTGMKSDSDQKKSENGVTLAPEDTLPFLKCYCSGHCPDDAINNTCITNGHCFAIIEEDDQGETTLASGCMKYEGSDFQCKDSPKAQLRRTIECCRTNLCNQYLQPTLPPVVIGPFFDGSIR
chain 2: SASSRRRQQSRNRSTQSQDVARVSSASDYNSSELKTACRKHELYVSFQDLGWQDWIIAPKGYAANYCDGECSFPLNAHMNATNHAIVQTLVHLMNPEYVPKPCCAPTKLNAISVLYFDDNSNVILKKYRNMVVRACGCH

Variants of: B1
Experiment: SPR; top curve of the analyte series, read at the end of association (about 300 s); analyte concentrations not given; receptor-Fc captured by anti-human antibody; read off a plot

Row | response [RLU] | Variant
1 | ~9.5 | chain 1 QNLDSMLHGTGMKSDSDQKKSENGVTLAPEDTLPFLKCYCSGHCPGDAINNTCITNGHCFAIIEEDDQGETTLASGCMKYEGSDFQCKDSPKAQLRRTIECCRTNLCNQYLQPTLPPVVIGPFFDGSIR
